Values of other authors in article PMC6438182.
pKd: −log10 of the molar value.

Target: GATAD2A coiled-coil (Homo sapiens) (UniProt Q86YP4)
UniProt Q86YP4, sequence (Q86YP4 137-178): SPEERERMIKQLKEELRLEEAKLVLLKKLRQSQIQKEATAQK

MBD2 coiled-coil (from UniProt Q9UBB5)
pKd: 7.38
